# Experimental data: patent publication US20200407457A1 (YANTAI OBIOADC BIOMEDICAL TECHNOLOGY, published 2020)
# Biological target: T1, TRAILR2 receptor on the surface of human tumor cells (human, UniProt O14763 56-440)
# Test: cell-based or functional assay
Binder,"IC50, cytotoxic effect on A2780 cells (CellTiter-Glo, 72 h)","IC50, cytotoxic effect on Jurkat E6-1 cells (CellTiter-Glo, 72 h)","IC50, cytotoxic effect on Mia PaCa-2 cells (CellTiter-Glo, 72 h)","IC50, cytotoxic effect on NCI-H460 cells (CellTiter-Glo, 72 h)","IC50, cytotoxic effect on NCI-H1975 cells (CellTiter-Glo, 72 h)","IC50, cytotoxic effect on SMMC-7721 cells (CellTiter-Glo, 72 h)","eff. (efficiency %), cytotoxic effect on Jurkat E6-1 cells","eff. (efficiency %), cytotoxic effect on Mia PaCa-2 cells","eff. (efficiency %), cytotoxic effect on NCI-H460 cells","eff. (efficiency %), cytotoxic effect on NCI-H1975 cells"
"Zapadcine-1a (antibody, V domains shown, MMAD coupled through linker Py-Vc-PAB by thiol (disulfide) bridge coupling, cleavable; positions not given) VH: QVQLVQSGSELKKPGASVKVSCKASGYTFTDFSMNWVRQAPGQGLEWMGWINTETGEPTYADDFKGRFVFSLDTSVSTAYLQISSLKAEDTAVYYCARIDYWGQGTTVTVSS VL: DIVMTQSPLSLPVTPGEPASISCRSSQSLVHSNGNTYLHWYLQKPGQSPQLLIYKVSNRFSGVPDRFSGSGSGTDFTLKISRVEAEDVGVYYCFQSTHVPHTFGQGTKLEIKR",151 ng/mL,13.3 ng/mL,135 ng/mL,86.5 ng/mL,109 ng/mL,12 ng/mL,97.3%,88.4%,96.2%,84.6%
"Zaptuzumab (antibody, V domains shown) VH: QVQLVQSGSELKKPGASVKVSCKASGYTFTDFSMNWVRQAPGQGLEWMGWINTETGEPTYADDFKGRFVFSLDTSVSTAYLQISSLKAEDTAVYYCARIDYWGQGTTVTVSS VL: DIVMTQSPLSLPVTPGEPASISCRSSQSLVHSNGNTYLHWYLQKPGQSPQLLIYKVSNRFSGVPDRFSGSGSGTDFTLKISRVEAEDVGVYYCFQSTHVPHTFGQGTKLEIKR",–,201 ng/mL,3010 ng/mL,–,542 ng/mL,6120 ng/mL,90.7%,27.5%,–,62.4%
"Zapadcine-1b (antibody, V domains shown, MMAD coupled through linker Mc-Vc-PAB by thiol conventional coupling, cleavable; positions not given) VH: QVQLVQSGSELKKPGASVKVSCKASGYTFTDFSMNWVRQAPGQGLEWMGWINTETGEPTYADDFKGRFVFSLDTSVSTAYLQISSLKAEDTAVYYCARIDYWGQGTTVTVSS VL: DIVMTQSPLSLPVTPGEPASISCRSSQSLVHSNGNTYLHWYLQKPGQSPQLLIYKVSNRFSGVPDRFSGSGSGTDFTLKISRVEAEDVGVYYCFQSTHVPHTFGQGTKLEIKR",1100 ng/mL,8.71 ng/mL,604 ng/mL,178 ng/mL,410 ng/mL,178 ng/mL,98.6%,86.8%,93.3%,83.4%
"Zapadcine-1c (antibody, V domains shown, MMAD coupled through linker Py-MAA by thiol bridge coupling, non-cleavable; positions not given) VH: QVQLVQSGSELKKPGASVKVSCKASGYTFTDFSMNWVRQAPGQGLEWMGWINTETGEPTYADDFKGRFVFSLDTSVSTAYLQISSLKAEDTAVYYCARIDYWGQGTTVTVSS VL: DIVMTQSPLSLPVTPGEPASISCRSSQSLVHSNGNTYLHWYLQKPGQSPQLLIYKVSNRFSGVPDRFSGSGSGTDFTLKISRVEAEDVGVYYCFQSTHVPHTFGQGTKLEIKR",–,16.5 ng/mL,173 ng/mL,65.1 ng/mL,312 ng/mL,19.7 ng/mL,98.1%,74%,46.4%,83%
"Zapadcine-1d (antibody, V domains shown, MMAF coupled through linker Mc-Vc-PAB by thiol conventional coupling, cleavable; positions not given) VH: QVQLVQSGSELKKPGASVKVSCKASGYTFTDFSMNWVRQAPGQGLEWMGWINTETGEPTYADDFKGRFVFSLDTSVSTAYLQISSLKAEDTAVYYCARIDYWGQGTTVTVSS VL: DIVMTQSPLSLPVTPGEPASISCRSSQSLVHSNGNTYLHWYLQKPGQSPQLLIYKVSNRFSGVPDRFSGSGSGTDFTLKISRVEAEDVGVYYCFQSTHVPHTFGQGTKLEIKR",–,108 ng/mL,1020 ng/mL,1030 ng/mL,1670 ng/mL,583 ng/mL,84.9%,80%,80.6%,68.8%

# Same assay, conditions: not given
row,Binder,"eff. (efficiency %), cytotoxic effect on SMMC-7721 cells"
1,"Zapadcine-1a (antibody, V domains shown, MMAD coupled through linker Py-Vc-PAB by thiol (disulfide) bridge coupling, cleavable; positions not given) VH: QVQLVQSGSELKKPGASVKVSCKASGYTFTDFSMNWVRQAPGQGLEWMGWINTETGEPTYADDFKGRFVFSLDTSVSTAYLQISSLKAEDTAVYYCARIDYWGQGTTVTVSS VL: DIVMTQSPLSLPVTPGEPASISCRSSQSLVHSNGNTYLHWYLQKPGQSPQLLIYKVSNRFSGVPDRFSGSGSGTDFTLKISRVEAEDVGVYYCFQSTHVPHTFGQGTKLEIKR",99.4%
2,"Zaptuzumab (antibody, V domains shown) VH: QVQLVQSGSELKKPGASVKVSCKASGYTFTDFSMNWVRQAPGQGLEWMGWINTETGEPTYADDFKGRFVFSLDTSVSTAYLQISSLKAEDTAVYYCARIDYWGQGTTVTVSS VL: DIVMTQSPLSLPVTPGEPASISCRSSQSLVHSNGNTYLHWYLQKPGQSPQLLIYKVSNRFSGVPDRFSGSGSGTDFTLKISRVEAEDVGVYYCFQSTHVPHTFGQGTKLEIKR",48%
3,"Zapadcine-1b (antibody, V domains shown, MMAD coupled through linker Mc-Vc-PAB by thiol conventional coupling, cleavable; positions not given) VH: QVQLVQSGSELKKPGASVKVSCKASGYTFTDFSMNWVRQAPGQGLEWMGWINTETGEPTYADDFKGRFVFSLDTSVSTAYLQISSLKAEDTAVYYCARIDYWGQGTTVTVSS VL: DIVMTQSPLSLPVTPGEPASISCRSSQSLVHSNGNTYLHWYLQKPGQSPQLLIYKVSNRFSGVPDRFSGSGSGTDFTLKISRVEAEDVGVYYCFQSTHVPHTFGQGTKLEIKR",95.7%
4,"Zapadcine-1c (antibody, V domains shown, MMAD coupled through linker Py-MAA by thiol bridge coupling, non-cleavable; positions not given) VH: QVQLVQSGSELKKPGASVKVSCKASGYTFTDFSMNWVRQAPGQGLEWMGWINTETGEPTYADDFKGRFVFSLDTSVSTAYLQISSLKAEDTAVYYCARIDYWGQGTTVTVSS VL: DIVMTQSPLSLPVTPGEPASISCRSSQSLVHSNGNTYLHWYLQKPGQSPQLLIYKVSNRFSGVPDRFSGSGSGTDFTLKISRVEAEDVGVYYCFQSTHVPHTFGQGTKLEIKR",96.5%
5,"Zapadcine-1d (antibody, V domains shown, MMAF coupled through linker Mc-Vc-PAB by thiol conventional coupling, cleavable; positions not given) VH: QVQLVQSGSELKKPGASVKVSCKASGYTFTDFSMNWVRQAPGQGLEWMGWINTETGEPTYADDFKGRFVFSLDTSVSTAYLQISSLKAEDTAVYYCARIDYWGQGTTVTVSS VL: DIVMTQSPLSLPVTPGEPASISCRSSQSLVHSNGNTYLHWYLQKPGQSPQLLIYKVSNRFSGVPDRFSGSGSGTDFTLKISRVEAEDVGVYYCFQSTHVPHTFGQGTKLEIKR",93.7%

# Biological target: T1, TRAILR2 receptor on the surface of …
# Test: cell-based or functional assay
# Remark: another data set of the same source
Binder,"IC50, cytotoxic effect on Jurkat E6-1 cells (CellTiter-Glo, 72 h)","IC50, cytotoxic effect on MSTO-211H cells (CellTiter-Glo, 72 h)","IC50, cytotoxic effect on Mia PaCa-2 cells (CellTiter-Glo, 72 h)","IC50, cytotoxic effect on Reh cells (CellTiter-Glo, 72 h)","eff. (efficiency %), cytotoxic effect on Jurkat E6-1 cells","eff. (efficiency %), cytotoxic effect on MSTO-211H cells","eff. (efficiency %), cytotoxic effect on Mia PaCa-2 cells","eff. (efficiency %), cytotoxic effect on Reh cells","IC50, cytotoxic effect on A172 cells (CellTiter-Glo, 72 h)","eff. (efficiency %), cytotoxic effect on A172 cells"
"Zaptuzumab (antibody, V domains shown) VH: QVQLVQSGSELKKPGASVKVSCKASGYTFTDFSMNWVRQAPGQGLEWMGWINTETGEPTYADDFKGRFVFSLDTSVSTAYLQISSLKAEDTAVYYCARIDYWGQGTTVTVSS VL: DIVMTQSPLSLPVTPGEPASISCRSSQSLVHSNGNTYLHWYLQKPGQSPQLLIYKVSNRFSGVPDRFSGSGSGTDFTLKISRVEAEDVGVYYCFQSTHVPHTFGQGTKLEIKR",201 ng/mL,514 ng/mL,2900 ng/mL,1590 ng/mL,90.7%,47.8%,33.2%,45%,–,–
"Zapadcine-3b (antibody, V domains shown, MMAE coupled through linker PY-MAA by thiol bridge coupling, non-cleavable; positions not given) VH: QVQLVQSGSELKKPGASVKVSCKASGYTFTDFSMNWVRQAPGQGLEWMGWINTETGEPTYADDFKGRFVFSLDTSVSTAYLQISSLKAEDTAVYYCARIDYWGQGTTVTVSS VL: DIVMTQSPLSLPVTPGEPASISCRSSQSLVHSNGNTYLHWYLQKPGQSPQLLIYKVSNRFSGVPDRFSGSGSGTDFTLKISRVEAEDVGVYYCFQSTHVPHTFGQGTKLEIKR",71.7 ng/mL,255 ng/mL,415 ng/mL,196 ng/mL,87.1%,91%,52.9%,75.3%,389 ng/mL,90.8%
"Zapadcine-3c (antibody, V domains shown, MMAE coupled through linker MC-VC-PAB by thiol conventional coupling, cleavable; positions not given) VH: QVQLVQSGSELKKPGASVKVSCKASGYTFTDFSMNWVRQAPGQGLEWMGWINTETGEPTYADDFKGRFVFSLDTSVSTAYLQISSLKAEDTAVYYCARIDYWGQGTTVTVSS VL: DIVMTQSPLSLPVTPGEPASISCRSSQSLVHSNGNTYLHWYLQKPGQSPQLLIYKVSNRFSGVPDRFSGSGSGTDFTLKISRVEAEDVGVYYCFQSTHVPHTFGQGTKLEIKR",89.6 ng/mL,220 ng/mL,508 ng/mL,889 ng/mL,82%,98.2%,86.3%,98.6%,703 ng/mL,93.2%
"Zapadcine-3d (antibody, V domains shown, MMAE coupled through linker MC by thiol conventional coupling, non-cleavable; positions not given) VH: QVQLVQSGSELKKPGASVKVSCKASGYTFTDFSMNWVRQAPGQGLEWMGWINTETGEPTYADDFKGRFVFSLDTSVSTAYLQISSLKAEDTAVYYCARIDYWGQGTTVTVSS VL: DIVMTQSPLSLPVTPGEPASISCRSSQSLVHSNGNTYLHWYLQKPGQSPQLLIYKVSNRFSGVPDRFSGSGSGTDFTLKISRVEAEDVGVYYCFQSTHVPHTFGQGTKLEIKR",5.71 ng/mL,124 ng/mL,139 ng/mL,24.2 ng/mL,98.9%,98.5%,81.7%,98.8%,308 ng/mL,92.5%
"Zapadcine-3a (antibody, V domains shown, MMAE coupled through linker PY-VC-PAB by thiol bridge coupling, cleavable; positions not given) VH: QVQLVQSGSELKKPGASVKVSCKASGYTFTDFSMNWVRQAPGQGLEWMGWINTETGEPTYADDFKGRFVFSLDTSVSTAYLQISSLKAEDTAVYYCARIDYWGQGTTVTVSS VL: DIVMTQSPLSLPVTPGEPASISCRSSQSLVHSNGNTYLHWYLQKPGQSPQLLIYKVSNRFSGVPDRFSGSGSGTDFTLKISRVEAEDVGVYYCFQSTHVPHTFGQGTKLEIKR",37.1 ng/mL,127 ng/mL,97 ng/mL,15.9 ng/mL,80.2%,97.5%,88.8%,89.8%,225 ng/mL,98.2%
"Zapadcine-3e (antibody, V domains shown, MMAF coupled through linker MC by thiol conventional coupling, non-cleavable; positions not given) VH: QVQLVQSGSELKKPGASVKVSCKASGYTFTDFSMNWVRQAPGQGLEWMGWINTETGEPTYADDFKGRFVFSLDTSVSTAYLQISSLKAEDTAVYYCARIDYWGQGTTVTVSS VL: DIVMTQSPLSLPVTPGEPASISCRSSQSLVHSNGNTYLHWYLQKPGQSPQLLIYKVSNRFSGVPDRFSGSGSGTDFTLKISRVEAEDVGVYYCFQSTHVPHTFGQGTKLEIKR",98.1 ng/mL,178 ng/mL,951 ng/mL,163 ng/mL,90.7%,99.1%,53%,77.4%,–,–
